In article PMC4840315:

What was measured:
insulin [1] = experiment: ligand dot blot (densitometric analysis of dots); conditions: 2.5 μl (0.09 mg/ml) protein dotted on nitrocellulose; 1 μg/ml insulin, 4 °C overnight; parent: est. 0.12; read off a plot
insulin [2] = experiment: pull-down (Ni-Sepharose 6 column, Western blot with anti-insulin antibody, densitometric analysis of bands); conditions: 0.1 mg His6-tagged-IGFBP7 mixed with 0.5 mg insulin; parent: est. 0.20; read off a plot

Row | response (insulin [1]) [Gradation] | response (insulin [2]) [Gradation] | Substance
1 | 0.11 |  | wild-type IGFBP7 (insulin-like growth factor binding protein 7), His6-tagged (from UniProt Q16270) H200F
2 | 0.53 |  | wild-type IGFBP7 (insulin-like growth factor binding protein 7), His6-tagged (from UniProt Q16270) R198E
3 | 0.025 | 0.1 | wild-type IGFBP7 (insulin-like growth factor binding protein 7), His6-tagged (from UniProt Q16270) R198I; H200F
